The text below walks through data of patent US20180244746A1 (INSERM INSTITUT NATIONAL DE LA SANT ET DE LA RECHERCHE M …, published 2018).

By Kd is commonly meant the constant that tells how readily two partners part at equilibrium.

In test [1] the target is T1, recombinant HLA-A2 molecules (human).
T1 construct: also called HLA-A*02:01
Nature of the test: stability measurement of recombinant HLA-A2 molecules complexed with the peptide (method not described; data not shown).

The target of test [2] is T1, recombinant HLA-A2 molecules. The test can be described thus: affinity measurement of recombinant HLA-A2 molecules complexed with the peptide (method not described; data not shown); ZnT8186-194 (…), the shorter epitope.
The target in test [3] is T2, zinc transporter (ZnT)8 peptide on HLA-A*02:01 (human).
T2 peptide: AVAANIVLTV
Nature of the test: multimer staining.

Test [4] deals with T3, zinc transporter (ZnT)8 peptide on HLA-A*02:01 (human).
T3 peptide: VAANIVLTV
The test can be described thus: multimer staining.

In test [5] the target is T1, recombinant HLA-A2 molecules. Nature of the test: affinity measurement of recombinant HLA-A2 molecules complexed with the peptide (method not described; data not shown); ZnT8185-194 (…), the longer variant.

B1: ZnT8186-194 peptide (VAANIVLTV) (peptide)
peptide: VAANIVLTV
notes: Synthesized by ChinaPeptides at >85% purity
With B1, in test [1], the “t1/2 (stability of the peptide/HLA-A2 complex)” value worked out at 1.8 h. Moreover, the Kd in test [2] was found to be 15 nM.

B2: H328C 9B3 (TCR)
alpha TRAV21*01 TRAJ57*01 CDR3: CAVVRTQGGSEKLVF
beta TRBV9*01 TRBJ1-6*02 CDR3: CASSPWTGIPYNSPLHF
Turning to B2, the binding result in test [3] and in test [4] was “recognises” each time.

B3: D010R 12B4 (TCR)
alpha TRAV1-2*01 TRAJ26*01 CDR3: CAVDNYGQNFVF
beta TRBV19*01 TRBJ2-3*01 CDR3: CASTGLAGTQYF
For B3, in test [4], the binding result is given as “recognises”.

B4: H328C 9C8 (TCR)
alpha TRAV25*01 TRAJ26*01 CDR3: CAGILSYGQNFVF
beta TRBV25-1*01 TRBJ1-2*01 CDR3: CASSEVGQGFNGYTF
For B4, the binding result in test [3] and in test [4] was “recognises” each time.

B5: D010R 1E2 (TCR)
alpha TRAV35*02 TRAJ36*01 CDR3: CAGTRNNLFF
beta TRBV19*01 TRBJ2-7*01 CDR3: CASGGSSYEQYF
Turning to B5, the binding result in test [3] and in test [4] was “recognises” each time.

B6: ZnT8185-194 peptide (AVAANIVLTV) (peptide)
peptide: AVAANIVLTV
notes: as for B1
Take B6: the “t1/2 (stability of the peptide/HLA-A2 complex)” value in test [1] was 2.3 h. In test [5], the Kd was 207 nM.
